Test results taken from patent US20220242953A1 (JIANGSU HENGRUI MEDICINE, published 2022).

Assays:
[1] = target: T1, Human CD3 antigen for detection (SinoBiological cat #CT038-H2508H); human CD3 epsilon-His and human CD3 … (human, UniProt P07766 23-126; P04234 22-105); test: Biacore T200 SPR, bispecific antibody captured, CD3 antigen as analyte, 1:1 Langmuir fit
T1 construct: Bought antigen
Description: (§1) The detection of antibody affinity to B7H3 and CD3 was performed in the form of capture antibody. BsAb was captured by CM5 biosensor chip (Cat. #BR-1005-30, GE) or Protein A (Cat. #29127556, GE) biosensor chip coupled with Anti-Human IgG Antibody (Cat. #BR-1008-39, Lot. #10260416, GE), and then each antigen flowed through the surface of the chip. The reaction signals were detected in real time with the Biacore T200 instrument to obtain the binding and dissociation curves. After the dissociation of each experimental cycle was completed, the chip was washed and regenerated with regeneration buffer Glycine1.5 (Cat #BR100354, GE) or 3 M MgCl₂ (from Human antibody capture kit, Cat. #BR100839, GE). The data were fitted with the (1:1) Langmuir model using GE Biacore T200 Evaluation version 3.0 software, and the affinity values were obtained.

[2] = target: human CD3 on the cell surface (Jurkat recombinant cells; T cells of PBMC) (human, UniProt P07766 23-207; P04234 22-171); test: FACS on Jurkat recombinant cells expressing CD3, APC anti-human IgG Fc detection, geometric mean fluorescence
human CD3 on the cell surface (Jurkat recombinant cells; T cells of PBMC), sequence (P07766 23-207, chain 1 of 2): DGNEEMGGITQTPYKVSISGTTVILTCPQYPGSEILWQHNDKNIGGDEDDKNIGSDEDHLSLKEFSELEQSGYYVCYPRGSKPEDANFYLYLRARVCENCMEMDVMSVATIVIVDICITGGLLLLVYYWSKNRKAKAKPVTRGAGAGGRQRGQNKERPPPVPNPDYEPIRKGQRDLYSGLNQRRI
human CD3 on the cell surface (Jurkat recombinant cells; T cells of PBMC), sequence (P04234 22-171, chain 2 of 2): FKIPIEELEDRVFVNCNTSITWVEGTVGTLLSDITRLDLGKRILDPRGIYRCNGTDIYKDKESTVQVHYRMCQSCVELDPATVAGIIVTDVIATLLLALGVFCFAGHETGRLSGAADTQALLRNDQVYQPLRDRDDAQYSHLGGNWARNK
Description: (§2) The ability of bispecific antibodies to bind to cell surface antigens was detected by FACS method.
(§3) FACS buffer (98% PBS, 2% FBS) was added into a 96-well U-shaped bottom plate (corning, 3795) to resuspend the cells, the serially diluted antibodies were added, incubated at 4° C. for 1 hour, and the plate was washed with FACS buffer twice. Then APC anti-human IgG Fc Antibody (biolegend, Cat #409306, dilution at 1:50) was added into each well, incubated at 4° C. for 30 minutes, washed twice, the cells were resuspended in FACS buffer, and finally the fluorescence signal values were read by FACS CantoII (BD).

[3] = target: T2, human B7H3 on the cell surface (A498, CT26/hB7H3, U87, Detroit562 cells) (human, UniProt Q5ZPR3 29-534); test: FACS on A498 cells expressing human B7H3, APC anti-human IgG Fc detection, geometric mean fluorescence
T2 construct: Endogenous on A498, U87 and Detroit562 tumor cells, over-expressed on CT26/hB7H3
T2 sequence: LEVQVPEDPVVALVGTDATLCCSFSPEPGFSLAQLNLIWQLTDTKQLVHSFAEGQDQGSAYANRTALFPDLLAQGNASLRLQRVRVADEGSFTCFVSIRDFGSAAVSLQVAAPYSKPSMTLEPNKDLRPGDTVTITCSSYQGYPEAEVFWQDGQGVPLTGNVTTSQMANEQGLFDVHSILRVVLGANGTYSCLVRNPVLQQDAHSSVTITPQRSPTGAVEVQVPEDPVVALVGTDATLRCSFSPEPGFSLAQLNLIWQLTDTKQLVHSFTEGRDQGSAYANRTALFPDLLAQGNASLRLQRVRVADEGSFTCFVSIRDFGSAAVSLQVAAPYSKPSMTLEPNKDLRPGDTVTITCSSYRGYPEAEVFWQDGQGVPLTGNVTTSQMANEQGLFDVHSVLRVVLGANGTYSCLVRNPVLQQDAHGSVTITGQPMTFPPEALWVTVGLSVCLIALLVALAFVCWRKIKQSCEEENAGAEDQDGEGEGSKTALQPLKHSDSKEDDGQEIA
Description: as §2, §3

[4] = target: T2, human B7H3 on the cell surface (A498, …); test: cell-based or functional assay
[5] = target: T3, Human B7H3 antigen for detection (SinoBiological cat #11188-H08H) (human, UniProt Q5ZPR3 29-461); test: Biacore T200 SPR, bispecific antibody captured, antigen as analyte, 1:1 Langmuir fit
T3 construct: Bought antigen
T3 sequence: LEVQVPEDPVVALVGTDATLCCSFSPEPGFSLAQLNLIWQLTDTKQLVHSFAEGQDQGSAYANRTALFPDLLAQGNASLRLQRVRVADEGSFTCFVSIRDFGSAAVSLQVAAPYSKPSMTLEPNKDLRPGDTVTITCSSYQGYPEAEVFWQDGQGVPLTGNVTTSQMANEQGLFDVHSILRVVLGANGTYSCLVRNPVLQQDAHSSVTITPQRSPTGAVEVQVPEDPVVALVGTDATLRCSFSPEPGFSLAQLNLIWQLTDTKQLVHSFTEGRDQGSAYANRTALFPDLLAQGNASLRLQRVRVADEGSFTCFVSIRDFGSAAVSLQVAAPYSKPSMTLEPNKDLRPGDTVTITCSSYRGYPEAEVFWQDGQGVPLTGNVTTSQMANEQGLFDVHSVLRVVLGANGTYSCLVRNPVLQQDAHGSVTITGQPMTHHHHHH
Description: as §1

[6] = target: T4, Monkey CD3 antigen for detection (Acro biosystem cat #CDD-C52W4); monkey CD3 epsilon-His and monkey CD3 … (monkey (cyno), UniProt Q95LI5 22-117; Q95LI8 22-105); test: as above
T4 construct: Bought antigen
T4 sequence (Q95LI5 other isoform, or with tags, fused parts or gaps mutant, chain 1 of 2): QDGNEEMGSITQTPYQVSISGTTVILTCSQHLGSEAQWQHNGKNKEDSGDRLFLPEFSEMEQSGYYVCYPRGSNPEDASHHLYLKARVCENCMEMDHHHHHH
T4 sequence (Q95LI8 other isoform, or with tags, fused parts or gaps mutant, chain 2 of 2): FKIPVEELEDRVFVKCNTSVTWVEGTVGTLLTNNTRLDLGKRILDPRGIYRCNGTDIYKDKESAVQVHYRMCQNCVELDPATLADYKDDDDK
Description: as §1

[7] = target: T1, Human CD3 antigen for detection …; test: as above
Description: as §1

[8] = target: T5, Monkey B7H3 antigen for detection (SinoBiological cat #90806-C08H) (monkey (cyno)); test: as above
T5 construct: Bought antigen; also called monkey (cyno) B7H3
T5 chain: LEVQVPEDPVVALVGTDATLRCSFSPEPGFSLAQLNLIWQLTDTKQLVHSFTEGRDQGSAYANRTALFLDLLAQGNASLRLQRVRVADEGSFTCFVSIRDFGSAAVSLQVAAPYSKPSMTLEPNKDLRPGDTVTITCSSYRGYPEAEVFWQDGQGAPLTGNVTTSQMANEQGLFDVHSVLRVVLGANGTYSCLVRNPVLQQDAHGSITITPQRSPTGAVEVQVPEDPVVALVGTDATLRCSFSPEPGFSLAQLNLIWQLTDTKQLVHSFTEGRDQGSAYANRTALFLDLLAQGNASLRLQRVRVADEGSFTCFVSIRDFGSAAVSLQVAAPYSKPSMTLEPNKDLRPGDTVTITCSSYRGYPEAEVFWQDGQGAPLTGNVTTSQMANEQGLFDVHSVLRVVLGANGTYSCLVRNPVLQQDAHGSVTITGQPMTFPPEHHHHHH
Description: as §1

[9] = target: T2, human B7H3 on the cell surface (A498, …); test: FACS on CT26/hB7H3 cells over-expressing human B7H3, APC anti-human IgG Fc detection, geometric mean fluorescence
Description: as §2, §3

T1 sequence (P07766 other isoform, or with tags, fused parts or gaps H2508H H2508H, chain 1 of 2): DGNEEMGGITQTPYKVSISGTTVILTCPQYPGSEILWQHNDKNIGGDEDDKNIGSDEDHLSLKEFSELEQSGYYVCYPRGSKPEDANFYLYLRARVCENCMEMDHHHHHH
T1 sequence (P04234 other isoform, or with tags, fused parts or gaps H2508H H2508H, chain 2 of 2): as the sequence (Q95LI8 other isoform, or with tags, fused parts or gaps mutant, chain 2 of 2) above, with V5I, K15N, V20I, T32S, N33D, N34I, A64T, N74S, L83V counted along it

B1: bispecific antibody 113 (AFF 3-2) (bispecific antibody)
chain 1: not shown
chain 2: QTVVTQEPSFSVSPGGTVTLTCGLSSGSVSTSHYPSWYQQTPGQAPRMLIYNTNTRSSGVPDRFSGSILGNKAALTITGAQADDESDYYCAIHVDRDIWVFGGGTKLTVLGGGGSGGGGSGGGGSQVQLVQSGGGVVQPGTSLRLSCAASGFIFSSSAMHWVRQAPGKGLEWVAVISYDGSNKYYVDSVKGRFTISRDNSKNTLYLQMNSLRAEDTAVYYCARSARLYASFDYWGQGALVTVSSGGGDKTHTCPPCPAPEAAGGPSVFLFPPKPKDTLMISRTPEVTCVVVDVSHEDPEVKFNWYVDGVEVHNAKTKPREEQYNSTYRVVSVLTVLHQDWLNGKEYKCKVSNKALPAPIEKTISKAKGQPREPQVCTLPPSREEMTKNQVSLSCAVKGFYPSDIAVEWESNGQPENNYKTTPPVLDSDGSFFLVSKLTVDKSRWQQGNVFSCSVMHEALHNHYTQKSLSLSPGK
notes: B7H3 bivalent CD3-B7H3 bispecific antibody, CD3 VH HRH-2
[1]
  Kd: 77.2 nM

B2: bispecific antibody 131 (AFF3-1) (bispecific antibody)
chain 1: not shown
chain 2: B1 chain 2
notes: B7H3 bivalent CD3-B7H3 bispecific antibody, CD3 VH HRH-1; two-chain knob/hole Fc format
[1]
  Kd: 40.7 nM

B3: bispecific antibody 154 (AFF3-4) (bispecific antibody)
chain 1: not shown
chain 2: B1 chain 2
notes: B7H3 bivalent CD3-B7H3 bispecific antibody, CD3 VH HRH-4
[1]
  Kd: 69.7 nM

B4: bispecific antibody 177 (AFF3-7) (bispecific antibody)
chain 1: not shown
chain 2: B1 chain 2
notes: B7H3 bivalent CD3-B7H3 bispecific antibody, CD3 VH HRH-7
[1]
  Kd: 162 nM

B5: NC1 (negative control bispecific antibody; B7H3 binding domain replaced with a non-related antibody, CD3 binding domain retained) (bispecific antibody)
chain 1: not shown
chain 2: DIQMTQSPSSVSASVGDRVTITCRASQDIANYLSWYQQKPGKSPKLLIYGTSNLEVGVPSRFSGSRSGTDFTLTISSLQPEDFATYYCLQDKEFPRTFGGGTKVEIKGGGGSGGGGSGGGGSEVQLVESGGGLVQPGGSLRLSCAASGFTFSHYYMAWVRQAPGKGLEWVTSISYEGDITYYGDSVKGRFTISRDNSKNTLYLQMNSLRAEDTATYYCASQTLRESFDYWGQGTLVTVSSGGGDKTHTCPPCPAPEAAGGPSVFLFPPKPKDTLMISRTPEVTCVVVDVSHEDPEVKFNWYVDGVEVHNAKTKPREEQYNSTYRVVSVLTVLHQDWLNGKEYKCKVSNKALPAPIEKTISKAKGQPREPQVCTLPPSREEMTKNQVSLSCAVKGFYPSDIAVEWESNGQPENNYKTTPPVLDSDGSFFLVSKLTVDKSRWQQGNVFSCSVMHEALHNHYTQKSLSLSPGK
notes: Control arm said to be an anti-fluorescein antibody; CD3 scFv with HRH-3
[2]
  EC50 (read off the curve): ~70 nM
[3]
  binding result: no binding (tested: about 5000 nM (log 3.7 on the axis))
[4]
  Emax (%), PBMC-mediated killing of A498 cells (B7H3 high): 20.9%
  Emax (%), PBMC-mediated killing of Detroit562 cells (B7H3 low): 0.95%
  Emax (%), PBMC-mediated killing of U87 cells (B7H3 intermediate): 3.8%
  IC50 (nM), PBMC-mediated killing of A498 cells (B7H3 high): > 300 nM
  IC50 (nM), PBMC-mediated killing of Detroit562 cells (B7H3 low): > 300 nM
  IC50 (nM), PBMC-mediated killing of U87 cells (B7H3 intermediate): > 300 nM

B6: MGD009 (positive control bispecific antibody, three chains) (bispecific antibody)
chain 1: DIQLTQSPSFLSASVGDRVTITCKASQNVDTNVAWYQQKPGKAPKALIYSASYRYSGVPSRFSGSGSGTDFTLTISSLQPEDFATYYCQQYNNYPFTFGQGTKLEIKGGGSGGGGEVQLVESGGGLVQPGGSLRLSCAASGFTFSTYAMNWVRQAPGKGLEWVGRIRSKYNNYATYYADSVKDRFTISRDDSKNSLYLQMNSLKTEDTAVYYCVRHGNFGNSYVSWFAYWGQGTLVTVSSGGCGGGEVAALEKEVAALEKEVAALEKEVAALEKGGGDKTHTCPPCPAPEAAGGPSVFLFPPKPKDTLMISRTPEVTCVVVDVSHEDPEVKFNWYVDGVEVHNAKTKPREEQYNSTYRVVSVLTVLHQDWLNGKEYKCKVSNKALPAPIEKTISKAKGQPREPQVYTLPPSREEMTKNQVSLWCLVKGFYPSDIAVEWESNGQPENNYKTTPPVLDSDGSFFLYSKLTVDKSRWQQGNVFSCSVMHEALHNHYTQKSLSLSPGK
chain 2: QAVVTQEPSLTVSPGGTVTLTCRSSTGAVTTSNYANWVQQKPGQAPRGLIGGTNKRAPWTPARFSGSLLGGKAALTITGAQAEDEADYYCALWYSNLWVFGGGTKLTVLGGGGSGGGGEVQLVESGGGLVQPGGSLRLSCAASGFTFSSFGMHWVRQAPGKGLEWVAYISSDSSAIYYADTVKGRFTISRDNAKNSLYLQMNSLRDEDTAVYYCGRGRENIYYGSRLDYWGQGTTVTVSSGGCGGGKVAALKEKVAALKEKVAALKEKVAALKE
chain 3: not shown
notes: B7H3 monovalent B7H3xCD3 DART-Fc
[2]
  EC50 (read off the curve): ~100 nM
[5]
  Kd: 1.96 nM
[6]
  Kd: 4.94 nM
[7]
  Kd: 78.1 nM
[8]
  Kd: 2.65 nM
[9]
  EC50 (read off the curve): ~10 nM

B7: NC2 (negative control bispecific antibody; B7H3 binding domain retained, CD3 binding domain replaced with a non-related antibody) (bispecific antibody)
chain 1: not shown
chain 2: B1 chain 2
notes: Control arm said to be anti-fluorescein
[2]
  binding result: no binding (tested: about 8000 nM (log 3.9 on the axis))
[3]
  EC50 (read off the curve): ~30 nM
[9]
  EC50 (read off the curve): ~4 nM
